Target: IL-17 (used on human synovial fibroblasts, Example 9)
Experiment: cell-based or functional assay

- IL-6 production by human RA fibroblasts stimulated with IL-17 (10 ng/ml) and TNF-α (100 U/ml); 3662.05 µg/ml without antibody; antibody at 10 µg/ml: 2320 µg/mL
Substance: MAB421 (antibody)
